# Measurements taken from PMC8165282.
# Biological target: duck STING-LgBiT-Myc (pBiT-STING-LgBiT-Myc)
# Assay: NanoBiT luciferase complementation in DEFs
# Settings: pBiT-STING-LgBiT-Myc 400 ng/well; pBiT-2KNS4B-SmBiT-Flag or mutant 400 ng/well; 20 h posttransfection; parent: est. 1.7e6; read off a plot
row,Substance,response
1,duck TMUV 2KNS4B-SmBiT-Flag (pBiT-2KNS4B-SmBiT-Flag) D34A; L35A; R36A,830000 RLU
2,duck TMUV 2KNS4B-SmBiT-Flag (pBiT-2KNS4B-SmBiT-Flag) K10A; K11A; D12A,1.4e+06 RLU
3,duck TMUV 2KNS4B-SmBiT-Flag (pBiT-2KNS4B-SmBiT-Flag) G4A; W5A; L6A,1.3e+06 RLU
4,duck TMUV 2KNS4B-SmBiT-Flag (pBiT-2KNS4B-SmBiT-Flag) N1A; E2A; M3A,930000 RLU
5,duck TMUV 2KNS4B-SmBiT-Flag (pBiT-2KNS4B-SmBiT-Flag) E7A; Q8A; T9A,830000 RLU

# Same assay, conditions: pBiT-STING-LgBiT-Myc 400 ng/well; pBiT-2KNS4B-SmBiT-Flag or mutant 400 ng/well; 20 h posttransfection; parent: est. 3.3e7; read off a plot
row,Substance,response
1,duck TMUV 2KNS4B-SmBiT-Flag (pBiT-2KNS4B-SmBiT-Flag) G4A,2.3e+07 RLU
2,duck TMUV 2KNS4B-SmBiT-Flag (pBiT-2KNS4B-SmBiT-Flag) T9A,2.9e+07 RLU
3,duck TMUV 2KNS4B-SmBiT-Flag (pBiT-2KNS4B-SmBiT-Flag) D34A,1.7e+07 RLU
4,duck TMUV 2KNS4B-SmBiT-Flag (pBiT-2KNS4B-SmBiT-Flag) M3A,2.2e+07 RLU
5,duck TMUV 2KNS4B-SmBiT-Flag (pBiT-2KNS4B-SmBiT-Flag) L6A,2.7e+07 RLU
6,duck TMUV 2KNS4B-SmBiT-Flag (pBiT-2KNS4B-SmBiT-Flag) K10A,2e+07 RLU
7,duck TMUV 2KNS4B-SmBiT-Flag (pBiT-2KNS4B-SmBiT-Flag) D12A,2.4e+07 RLU
8,duck TMUV 2KNS4B-SmBiT-Flag (pBiT-2KNS4B-SmBiT-Flag) Q8A,2.7e+07 RLU
9,duck TMUV 2KNS4B-SmBiT-Flag (pBiT-2KNS4B-SmBiT-Flag) K11A,2.6e+07 RLU
10,duck TMUV 2KNS4B-SmBiT-Flag (pBiT-2KNS4B-SmBiT-Flag) E2A,2.4e+07 RLU
11,duck TMUV 2KNS4B-SmBiT-Flag (pBiT-2KNS4B-SmBiT-Flag) N1A,3.6e+07 RLU
12,duck TMUV 2KNS4B-SmBiT-Flag (pBiT-2KNS4B-SmBiT-Flag) R36A,1.9e+07 RLU
13,duck TMUV 2KNS4B-SmBiT-Flag (pBiT-2KNS4B-SmBiT-Flag) L35A,2.6e+07 RLU
14,duck TMUV 2KNS4B-SmBiT-Flag (pBiT-2KNS4B-SmBiT-Flag) E7A,2.5e+07 RLU
15,duck TMUV 2KNS4B-SmBiT-Flag (pBiT-2KNS4B-SmBiT-Flag) W5A,1.5e+07 RLU
